{"source": "the supplement of paper PMC10567573", "parents": {"B1": {"name": "PPP2R2C (parent)", "chain": "YSSSKGSLRLCDMRAAALCDKHSK"}}, "data": [{"variants_of": "B1", "test": "protein stability index of a GFP-peptide fusion (GPS, HEK-293T) (PSI 1-6); higher = more stable", "conditions": "c terminus: a fixed tail appended", "values": [{"variant": "L18E", "protein stability index": 1.9}, {"variant": "L18Y", "protein stability index": 1.8}, {"variant": "L18Q", "protein stability index": 2.17}, {"variant": "L18G", "protein stability index": 1.52}, {"variant": "L18S", "protein stability index": 1.79}, {"variant": "L18C", "protein stability index": 1.55}, {"variant": "L18I", "protein stability index": 1.96}, {"variant": "L18A", "protein stability index": 2.15}, {"variant": "L18F", "protein stability index": 1.69}, {"variant": "L18T", "protein stability index": 1.81}, {"variant": "L18W", "protein stability index": 1.44}, {"variant": "L18D", "protein stability index": 1.48}, {"variant": "L18P", "protein stability index": 1.58}, {"variant": "L18H", "protein stability index": 2.03}, {"variant": "L18N", "protein stability index": 1.65}, {"variant": "L18R", "protein stability index": 1.96}, {"variant": "L18V", "protein stability index": 2.02}, {"variant": "L18K", "protein stability index": 1.73}, {"variant": "L18M", "protein stability index": 1.13}, {"variant": "R14A", "protein stability index": 2.03}, {"variant": "R14K", "protein stability index": 1.68}, {"variant": "R14H", "protein stability index": 2.34}, {"variant": "R14N", "protein stability index": 2.48}, {"variant": "R14C", "protein stability index": 2.89}, {"variant": "R14E", "protein stability index": 2.3}, {"variant": "R14Q", "protein stability index": 1.27}, {"variant": "R14G", "protein stability index": 2.13}, {"variant": "R14V", "protein stability index": 1.81}, {"variant": "R14T", "protein stability index": 1.98}, {"variant": "R14D", "protein stability index": 1.55}, {"variant": "R14L", "protein stability index": 2.18}, {"variant": "R14M", "protein stability index": 2.29}, {"variant": "R14F", "protein stability index": 2.27}, {"variant": "R14Y", "protein stability index": 2.45}, {"variant": "R14W", "protein stability index": 1.69}, {"variant": "R14P", "protein stability index": 1.8}, {"variant": "R14S", "protein stability index": 2.02}, {"variant": "A16H", "protein stability index": 2.06}, {"variant": "A16N", "protein stability index": 2.05}, {"variant": "A16P", "protein stability index": 1.64}, {"variant": "A16V", "protein stability index": 1.82}, {"variant": "A16C", "protein stability index": 2.56}, {"variant": "A16M", "protein stability index": 1.5}, {"variant": "A16E", "protein stability index": 2.28}, {"variant": "A16G", "protein stability index": 2.55}, {"variant": "A16T", "protein stability index": 1.97}, {"variant": "A16D", "protein stability index": 2.85}, {"variant": "A16R", "protein stability index": 2.04}, {"variant": "A16L", "protein stability index": 1.3}, {"variant": "A16S", "protein stability index": 2.02}, {"variant": "A16W", "protein stability index": 1.23}, {"variant": "A16Y", "protein stability index": 1.63}, {"variant": "A16K", "protein stability index": 2.53}, {"variant": "A16F", "protein stability index": 2.2}, {"variant": "A16Q", "protein stability index": 2.18}, {"variant": "A16I", "protein stability index": 1.84}, {"variant": "K24T", "protein stability index": 2.39}, {"variant": "K24L", "protein stability index": 2.13}, {"variant": "K24Q", "protein stability index": 1.64}, {"variant": "K24A", "protein stability index": 1.85}, {"variant": "K24W", "protein stability index": 2.51}, {"variant": "K24S", "protein stability index": 1.65}, {"variant": "K24C", "protein stability index": 1.21}, {"variant": "K24H", "protein stability index": 1.43}, {"variant": "K24E", "protein stability index": 1.96}, {"variant": "K24D", "protein stability index": 2.22}, {"variant": "K24N", "protein stability index": 2.15}, {"variant": "K24M", "protein stability index": 2.11}, {"variant": "K24I", "protein stability index": 2.06}, {"variant": "K24R", "protein stability index": 1.9}, {"variant": "K24Y", "protein stability index": 1.52}, {"variant": "K24V", "protein stability index": 1.74}, {"variant": "K24F", "protein stability index": 1.36}, {"variant": "K24P", "protein stability index": 1.9}, {"variant": "A17G", "protein stability index": 1.61}, {"variant": "A17I", "protein stability index": 1.39}, {"variant": "A17Y", "protein stability index": 2.06}, {"variant": "A17D", "protein stability index": 1.51}, {"variant": "A17C", "protein stability index": 2.06}, {"variant": "A17K", "protein stability index": 1.85}, {"variant": "A17R", "protein stability index": 1.78}, {"variant": "A17W", "protein stability index": 2.33}, {"variant": "A17M", "protein stability index": 1.79}, {"variant": "A17Q", "protein stability index": 3.18}, {"variant": "A17T", "protein stability index": 1.52}, {"variant": "A17V", "protein stability index": 3.45}, {"variant": "A17L", "protein stability index": 1.75}, {"variant": "A17E", "protein stability index": 2.16}, {"variant": "A17H", "protein stability index": 2.29}, {"variant": "A17S", "protein stability index": 1.31}, {"variant": "A17F", "protein stability index": 2.36}, {"variant": "A17P", "protein stability index": 2.1}, {"variant": "A17N", "protein stability index": 3.18}, {"variant": "M13W", "protein stability index": 1.61}, {"variant": "M13V", "protein stability index": 2.07}, {"variant": "M13Y", "protein stability index": 3.27}, {"variant": "M13R", "protein stability index": 1.68}, {"variant": "M13T", "protein stability index": 2.21}, {"variant": "M13Q", "protein stability index": 1.83}, {"variant": "M13S", "protein stability index": 1.65}, {"variant": "D20P", "protein stability index": 2.25}, {"variant": "D20V", "protein stability index": 2.58}, {"variant": "D20K", "protein stability index": 2.6}, {"variant": "D20M", "protein stability index": 1.98}, {"variant": "D20Q", "protein stability index": 2.33}, {"variant": "D20I", "protein stability index": 2.17}, {"variant": "D20C", "protein stability index": 1.41}, {"variant": "D20F", "protein stability index": 2.19}, {"variant": "D20S", "protein stability index": 1.81}, {"variant": "D20G", "protein stability index": 2.62}, {"variant": "D20E", "protein stability index": 1.97}, {"variant": "D20A", "protein stability index": 1.64}, {"variant": "D20Y", "protein stability index": 1.96}, {"variant": "D20N", "protein stability index": 2.21}, {"variant": "D20W", "protein stability index": 2.31}, {"variant": "D20T", "protein stability index": 2.18}, {"variant": "D20L", "protein stability index": 2.05}, {"variant": "D20R", "protein stability index": 3.31}, {"variant": "D20H", "protein stability index": 2.64}, {"variant": "A15E", "protein stability index": 2.61}, {"variant": "A15N", "protein stability index": 2.54}, {"variant": "A15P", "protein stability index": 2.43}, {"variant": "A15K", "protein stability index": 1.58}, {"variant": "A15I", "protein stability index": 1.96}, {"variant": "A15M", "protein stability index": 2.72}, {"variant": "A15H", "protein stability index": 1.78}, {"variant": "A15G", "protein stability index": 2.24}, {"variant": "A15Y", "protein stability index": 2.34}, {"variant": "A15T", "protein stability index": 2.09}, {"variant": "A15S", "protein stability index": 2.31}, {"variant": "A15W", "protein stability index": 1.81}, {"variant": "A15C", "protein stability index": 1.14}, {"variant": "A15Q", "protein stability index": 1.77}, {"variant": "A15D", "protein stability index": 1.72}, {"variant": "A15V", "protein stability index": 1.6}, {"variant": "A15F", "protein stability index": 2.4}, {"variant": "A15L", "protein stability index": 1.54}, {"variant": "A15R", "protein stability index": 1.38}, {"variant": "C19L", "protein stability index": 1.55}, {"variant": "C19D", "protein stability index": 2.3}, {"variant": "C19W", "protein stability index": 1.69}, {"variant": "C19S", "protein stability index": 1.73}, {"variant": "C19A", "protein stability index": 1.74}, {"variant": "C19I", "protein stability index": 2.03}, {"variant": "C19P", "protein stability index": 1.84}, {"variant": "C19E", "protein stability index": 1.62}, {"variant": "C19K", "protein stability index": 2.14}, {"variant": "C19G", "protein stability index": 1.25}, {"variant": "C19F", "protein stability index": 2.32}, {"variant": "C19Q", "protein stability index": 1.69}, {"variant": "C19M", "protein stability index": 1.68}, {"variant": "C19T", "protein stability index": 1.71}, {"variant": "C19R", "protein stability index": 2.06}, {"variant": "C19H", "protein stability index": 1.56}, {"variant": "C19V", "protein stability index": 1.4}, {"variant": "C19N", "protein stability index": 1.58}, {"variant": "C19Y", "protein stability index": 2.01}, {"variant": "K21C", "protein stability index": 2.48}, {"variant": "K21R", "protein stability index": 1.69}, {"variant": "K21L", "protein stability index": 1.29}, {"variant": "K21E", "protein stability index": 1.26}, {"variant": "K21I", "protein stability index": 1.48}, {"variant": "K21T", "protein stability index": 1.86}, {"variant": "K21A", "protein stability index": 2.35}, {"variant": "K21F", "protein stability index": 1.95}, {"variant": "K21H", "protein stability index": 2.01}, {"variant": "K21D", "protein stability index": 1.78}, {"variant": "K21P", "protein stability index": 2.79}, {"variant": "K21G", "protein stability index": 2.12}, {"variant": "K21M", "protein stability index": 1.96}, {"variant": "K21N", "protein stability index": 1.9}, {"variant": "K21Q", "protein stability index": 1.82}, {"variant": "K21S", "protein stability index": 2.21}, {"variant": "K21V", "protein stability index": 2.63}, {"variant": "K21Y", "protein stability index": 1.95}, {"variant": "K21W", "protein stability index": 2.12}, {"variant": "H22Y", "protein stability index": 1.91}, {"variant": "H22T", "protein stability index": 2.11}, {"variant": "H22E", "protein stability index": 3.04}, {"variant": "H22C", "protein stability index": 2.17}, {"variant": "H22I", "protein stability index": 2.22}, {"variant": "H22F", "protein stability index": 1.53}, {"variant": "H22K", "protein stability index": 1.54}, {"variant": "H22R", "protein stability index": 1.56}, {"variant": "H22L", "protein stability index": 1.6}, {"variant": "H22G", "protein stability index": 2.31}, {"variant": "H22Q", "protein stability index": 1.53}, {"variant": "H22D", "protein stability index": 1.79}, {"variant": "H22N", "protein stability index": 2.04}, {"variant": "H22A", "protein stability index": 2.02}, {"variant": "H22W", "protein stability index": 2.05}, {"variant": "H22M", "protein stability index": 1.7}, {"variant": "H22P", "protein stability index": 1.16}, {"variant": "H22S", "protein stability index": 1.62}, {"variant": "S23C", "protein stability index": 1.12}, {"variant": "S23L", "protein stability index": 1.93}, {"variant": "S23D", "protein stability index": 1.86}, {"variant": "S23F", "protein stability index": 2.57}, {"variant": "S23P", "protein stability index": 1.42}, {"variant": "S23G", "protein stability index": 1.76}, {"variant": "S23K", "protein stability index": 1.82}, {"variant": "S23A", "protein stability index": 1.79}, {"variant": "S23I", "protein stability index": 2.01}, {"variant": "S23N", "protein stability index": 1.43}, {"variant": "S23T", "protein stability index": 1.88}, {"variant": "S23H", "protein stability index": 2.96}, {"variant": "S23M", "protein stability index": 2.19}, {"variant": "S23Y", "protein stability index": 2.52}, {"variant": "S23Q", "protein stability index": 1.85}, {"variant": "S23R", "protein stability index": 1.78}, {"variant": "S23V", "protein stability index": 2.4}, {"variant": "S23W", "protein stability index": 1.35}, {"variant": "S23E", "protein stability index": 1.81}]}]}
